Assay results taken from patent publication US20090203610A1, “METHODS OF TREATING OBESITY OR DIABETES USING NT-4/5” (RINAT NEUROSCIENCE CORPORATION, priority 2004, published 2009).

Tests used:
db/db mice [1] = experiment: Serum transaminase (AST, ALT) activity in db/db mice (Example 1)
Experimental: Test animals: 24 female 10-12 weeks old db/db mice (C57BL/Ks J Rj-db/db, Janvier, France), weighing in the target range of 40-50 g, were used in this study. These mice were housed in a temperature (19.5-24.5° C.) and relative humidity (45-65%) controlled room with a 12-hour light/dark cycle, with ad libitum access to filtered tap-water and irradiated pelleted laboratory chow (SAFE, France) throughout the study. Upon receipt at animal facilities, they were housed 4 per cage covered with filtered caps and at least a 5-day acclimation period was observed.
The mice were divided into three groups of 8 mice each (groups 1-3). Each group was treated with vehicle (PBS) subcutaneously (s.c.), 3 mg/kg Rosiglitazone orally (p.o.), or 20 mg/kg NT-4/5 subcutaneously (s.c.). From day 1 to day 5 (T1-T5) and then from day 8 to day 12 (T8-T12), the mice in groups 2 and 3 were dosed once daily for 5 consecutive days, with a volume of 10 ml/kg.
Collection of samples for analysis: One day before beginning the treatment (T0), non fasted db/db mice were weighed and blood samples were collected through the retro-orbital plexus (about 300 μL/mouse) under isoflurane anesthesia. Similarly, at day 5 (T5), day 12 (T12), day 19 (T19) and day 26 (T26), two hours after the last administration, blood samples were collected through the retro-orbital plexus under isoflurane anesthesia in non fasted mice.
Analysis of blood samples in db/db mice: Pre- and post dose serum levels of glucose, HbA1c, cholesterol and triglycerides, insulin, and non esterified fatty acids (NEFA), as well as aspirate amino-transferase (AST) and alanine amino-transferase activities (ALT) activities, were determined at different time points, as described further herein. At each time point and for each parameter, a mean % of the effect was calculated according to the following formula: ((T final−T initial)/T initial)*100. Statistical analysis was consistent in a one-way analysis of variance followed by multiple comparisons versus the vehicle group (Dunnett's test) on final values. In case the equal variance test fails, a Kruskall-Wallis one-way analysis of variance on ranks was conducted. A difference was considered significant for p<0.05.
Aspartate amino-transferase (AST) and alanine amino-transferase (ALT) activities were determined with an AST kit (ref. 442665, Beckman Coulter, France), an ALT kit (ref. 442620, Beckman Coulter, France), using a Synchron CX4 analyzer.

db/db mice [2] = experiment: Dose response of NT-4/5 on serum biomarkers of db/db mice (Example 2); type: in vivo
Experimental: Db/db mice maintained as described in Example 1 were divided into five groups (groups 1-5). Group 1 (7 mice) were administered with vehicle (PBS). Group 2 (7 mice), group 3 (8 mice), group 4 (8 mice), group 5 (8 mice) were each administered with NT-4/5 at the doses of 2 mg/kg, 5 mg/kg, 10 mg/kg, and 20 mg/kg, respectively. Both the vehicle and NT-4/5 were administered to each group of the mice subcutaneously once daily for five days. One day before beginning the treatment (T0), blood samples were collected from the mice as described previously for the determination of baseline levels of serum biomarkers (glucose, triglyceride, and cholesterol). Similarly, at day 6 (T6), blood samples were collected for the determination of serum biomarker levels. The blood samples were treated in the same manner as described in Example 1.
Blood glucose, triglyceride, and cholesterol levels were determined as described in Example 1.

db/db mice [3] = experiment: Body weight after single injection of NT-4/5 or pegylated NT-4/5 in db/db mice (Example 7, Table 21); type: in vivo; conditions: for Body weight expressed in percentage of baseline value: single 5 mg/kg dose on day 1
Experimental: (§1) Test animals: 30 female db/db mice at 7 weeks of age weighing in the range of 27-34 g were used in this study.
(§2) Administration of NT-4/5 and pegylated NT-4/5: Wild type NT-4/5 was obtained from Genentech Inc. The mice were divided into 5 groups of equivalent body weight distribution (6 mice per group). Each group received on the first day (day 1) of the study one and the only dose of either vehicle, 5 mg/kg of NT-4/5 produced as described above, 5 mg/kg of 2PEG-NT4-G1S, or 5 mg/kg of 1PEG-NT4-G1S. 2PEG-NT4-G1S represents one PEG molecule was conjugated to each NT-4/5 monomer in a NT-4/5 dimer, and 1PEG-NT4-G1S represents one PEG molecule was conjugated to only one monomer of the NT-4/5 dimer. 2PEG-NT4-G1S and 1PEG-NT4-G1S were separated by ion exchange. Four days before starting the treatment (day −4), blood samples were collected from the mice as described previously for the determination of baseline levels of serum glucose. On day 4 after the treatment started, blood samples were collected again to determine serum glucose level. Body weight and food intake were monitored 5 days a week through out the entire study.

DIO mice = experiment: Weekly intravenous pegylated G1S NT-4/5 versus WT NT-4/5 on body weight and food intake in DIO mice (Example 8); type: in vivo
Source text: Test animals: Mice with diet induced obesity (DIO) were used in this study. 29 male C57BL/6J mice were weaned at 4 weeks of age. Immediately after weaning, they were put on 58% high fat diet (D12331i, Research Diet) through out the study. The DIO mice at 13 weeks of age weighing in the range of 28-40 g were used in this study.
Administration of NT-4/5 and pegylated NT-4/5: NT-4/5 was obtained from Genentech Inc. or produced as described in U.S. Pat. No. 6,184,360. Pegylated NT-4/5 was produced as follows: A mutation was introduced by changing the glycine 1 position of mature human NT-4/5 sequence to serine, resulting in a mutant form of NT-4/5 (NT4-G1S). NT4-G1S protein was expressed in E. coli, solubilized, extracted, purified and refolded as described above. Refolded NT4-G1S was dialyzed into 50 mM sodium phosphate buffer at pH 6.8 and treated with 1.5 molar excess sodium meta-periodate for 10 minutes to oxidize the N-terminal serine (or threonine) residue to an aldehyde. Remaining periodate was removed by dialysis against 30 mM sodium acetate at pH 4.5. The exact concentration of NT4-G1S was determined and a 2 to 4 fold molar excess of 20K-m-PEG-HZ (methoxy polyethylene glycol hydrazide) was added. The reaction was incubated at 37° C. for several days with gentle agitation. Unconjugated PEG, pegylated NT4-G1S and non-pegylated NT4-G1S were separated via ion exchange or size exclusion chromatography.
The mice were divided into 3 groups of equivalent body weight and baseline blood glucose distribution (7-8 mice per group). Each group received four weekly intravenous doses (on day 1, 8, 15 and 22) of either vehicle, 2 mg/kg of NT-4/5 or 2 mg/kg of pegylated G1S NT-4/5 respectively. Body weight and food intake were monitored 5 days per week through out the entire study.

db/db mice [4] = experiment: Non-fasting serum glucose after single injection in db/db mice (Example 7); type: in vivo; conditions: after 4 days; single subcutaneous injection, 5 mg/kg
Experimental: as §1, §2

p75NTR = molecular target: T1, p75NTR (Homo sapiens, UniProt P08138); conditions: low affinity receptor (LNGFR, p75NTR); cited from earlier work
T1 sequence (P08138 29-427): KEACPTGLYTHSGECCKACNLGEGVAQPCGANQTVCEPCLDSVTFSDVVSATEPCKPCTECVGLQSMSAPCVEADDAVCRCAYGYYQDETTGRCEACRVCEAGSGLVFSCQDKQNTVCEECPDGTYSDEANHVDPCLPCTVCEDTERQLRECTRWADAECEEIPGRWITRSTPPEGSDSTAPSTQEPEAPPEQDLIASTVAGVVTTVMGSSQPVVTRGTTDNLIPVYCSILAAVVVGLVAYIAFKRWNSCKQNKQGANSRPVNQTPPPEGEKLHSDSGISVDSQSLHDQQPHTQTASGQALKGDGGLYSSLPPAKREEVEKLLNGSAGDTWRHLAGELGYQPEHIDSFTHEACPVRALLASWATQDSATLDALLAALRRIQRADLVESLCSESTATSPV

[5] = day 0, before treatment, NT-4/5 20 mg/kg s.c., Rosiglitazone 3 mg/kg p.o.
[6] = day 5, NT-4/5 20 mg/kg s.c., Rosiglitazone 3 mg/kg p.o.
[7] = day 5 vs day 0, NT-4/5 20 mg/kg s.c., Rosiglitazone 3 mg/kg p.o.
[8] = day 12, NT-4/5 20 mg/kg s.c., Rosiglitazone 3 mg/kg p.o.
[9] = day 12 vs day 0, NT-4/5 20 mg/kg s.c., Rosiglitazone 3 mg/kg p.o.
[10] = day 19, NT-4/5 20 mg/kg s.c., Rosiglitazone 3 mg/kg p.o.
[11] = day 19 vs day 0, NT-4/5 20 mg/kg s.c., Rosiglitazone 3 mg/kg p.o.
[12] = day 26, NT-4/5 20 mg/kg s.c., Rosiglitazone 3 mg/kg p.o.
[13] = day 26 vs day 0, NT-4/5 20 mg/kg s.c., Rosiglitazone 3 mg/kg p.o.
[14] = Day 0 (Baseline), 2 mg/kg group
[15] = Day 0 (Baseline), 5 mg/kg group
[16] = Day 0 (Baseline), 10 mg/kg group
[17] = Day 0 (Baseline), 20 mg/kg group

With CN(CCOc1ccc(CC2SC(=O)NC2=O)cc1)c1ccccn1 (stereo not drawn) [Rosiglitazone, reference compound] the “ALT T0” value (db/db mice [1]; [5]) was 157.5 IU/L, the “ALT/AST ratio T0” value (db/db mice [1]; [5]) was 1.00 and the “AST T0” value (db/db mice [1]; [5]) was 185.8 IU/L. The “ALT T5” value (db/db mice [1]; [6]) was 172.3 IU/L, the “ALT/AST ratio T5” value (db/db mice [1]; [6]) was 1.03 and the “AST T5” value (db/db mice [1]; [6]) was 174.0 IU/L. The “ALT % effect T5-T0” value (db/db mice [1]; [7]) was 12.7%, the “ALT/AST ratio % effect T5-T0” value (db/db mice [1]; [7]) was 16.4% and the “AST % effect T5-T0” value (db/db mice [1]; [7]) was 8.2%. For the same molecule, the “ALT T12” value (db/db mice [1]; [8]) was 222.0 IU/L, the “ALT/AST ratio T12” value (db/db mice [1]; [8]) was 1.13 and the “AST T12” value (db/db mice [1]; [8]) was 200.5 IU/L. For the same molecule, the “ALT % effect T12-T0” value (db/db mice [1]; [9]) was 43.6%, the “ALT/AST ratio % effect T12-T0” value (db/db mice [1]; [9]) was 30.4% and the “AST % effect T12-T0” value (db/db mice [1]; [9]) was 19.9%. The “ALT T19” value (db/db mice [1]; [10]) was 179.0 IU/L, the “ALT/AST ratio T19” value (db/db mice [1]; [10]) was 1.31 and the “AST T19” value (db/db mice [1]; [10]) was 148.5 IU/L. The “ALT % effect T19-T0” value (db/db mice [1]; [11]) was 16.6%, the “ALT/AST ratio % effect T19-T0” value (db/db mice [1]; [11]) was 52.2% and the “AST % effect T19-T0” value (db/db mice [1]; [11]) was −6.9%. For the same molecule, the “ALT T26” value (db/db mice [1]; [12]) was 144.3 IU/L, the “ALT/AST ratio T26” value (db/db mice [1]; [12]) was 1.05 and the “AST T26” value (db/db mice [1]; [12]) was 143.0 IU/L. The “ALT % effect T26-T0” value (db/db mice [1]; [13]) was −10.1%, the “ALT/AST ratio % effect T26-T0” value (db/db mice [1]; [13]) was 17.1% and the “AST % effect T26-T0” value (db/db mice [1]; [13]) was −13.8%.

B1: NT-4/5: mature human neurotrophin-4/5 (SEQ ID NO:1), obtained from Genentech or produced in E. coli (protein, listed as Homo sapiens)
chain: GVSETAPASRRGELAVCDAVSGWVTDRRTAVDLRGREVEVLGEVPAAGGSPLRQYFFETRCKADNAEEGGPGAGGGGCRGVDRRHWVSECKAKQSYVRALTADAQGRVGWRWIRIDTACVCTLLSRTGRA
Work on B1 yielded a Cholesterol (db/db mice [2]; [14]) of 86.25 mg/dL, a Glucose (db/db mice [2]; [14]) of 544.50 mg/dL and a Triglyceride (db/db mice [2]; [14]) of 206.13 mg/dL. For the same molecule, the Cholesterol (db/db mice [2]; [15]) was 95.88 mg/dL, the Glucose (db/db mice [2]; [15]) was 563.00 mg/dL and the Triglyceride (db/db mice [2]; [15]) was 217.13 mg/dL. It also gave a Cholesterol (db/db mice [2]; [16]) of 90.00 mg/dL, a Glucose (db/db mice [2]; [16]) of 538.00 mg/dL and a Triglyceride (db/db mice [2]; [16]) of 197.50 mg/dL. It also gave a Cholesterol (db/db mice [2]; [17]) of 98.38 mg/dL, a Glucose (db/db mice [2]; [17]) of 544.88 mg/dL and a Triglyceride (db/db mice [2]; [17]) of 253.50 mg/dL. It also gave a Cholesterol (db/db mice [2]; Day 6, 2 mg/kg s.c. once daily for five days) of 111.43 mg/dL, a Cholesterol (db/db mice [2]; Day 6, 5 mg/kg s.c. once daily for five days) of 113.25 mg/dL and a Cholesterol (db/db mice [2]; Day 6, 10 mg/kg s.c. once daily for five days) of 108.75 mg/dL. For the same molecule, the Cholesterol (db/db mice [2]; Day 6, 20 mg/kg s.c. once daily for five days) was 112.88 mg/dL, the “blood cholesterol levels” value (db/db mice [2]; day 6, 2-20 mg/kg) was “remained at the baseline level” and the “Body weight expressed in percentage of baseline value” (shortened to “Body weight expressed in percentage”) (db/db mice [3]; Day 1) was 100.0 % of baseline. For the same molecule, the “Body weight expressed in percentage” value (db/db mice [3]; Day 2) was 97.7 % of baseline, the “Body weight expressed in percentage” value (db/db mice [3]; Day 3) was 100.5 % of baseline and the “Body weight expressed in percentage” value (db/db mice [3]; Day 4) was 101.7 % of baseline. For the same molecule, the “body weight growth” value (db/db mice [3]; single subcutaneous injection, 5 mg/kg, significantly) was “reduced the body weight growth”, the “body weight, pairwise difference with the vehicle control group” value (DIO mice; 2 mg/kg i.v. on day 1, 8, 15, 22, Bonferroni posttests) was “significant pairwise differences” and the “body weight with long term weekly dosing” value (DIO mice; 2 mg/kg i.v. weekly) was “more effective in maintaining lower body weight”. For the same molecule, the “non-fasting serum glucose levels” value (db/db mice [4]) was “showed a tendency to reduce”, the “effect on AST and/or ALT levels, or AST/ALT ratios” value (db/db mice [1]; 20 mg/kg s.c.) was “did not have significant effect” and the “ALT/AST ratio T0” value (db/db mice [1]; [5]) was 1.17. For the same molecule, the “ALT/AST ratio T5” value (db/db mice [1]; [6]) was 0.73, the “ALT/AST ratio % effect T5-T0” value (db/db mice [1]; [7]) was −32.7% and the “ALT/AST ratio T12” value (db/db mice [1]; [8]) was 0.87. The “ALT/AST ratio % effect T12-T0” value (db/db mice [1]; [9]) was −26.6%, the “ALT/AST ratio T19” value (db/db mice [1]; [10]) was 0.67 and the “ALT/AST ratio % effect T19-T0” value (db/db mice [1]; [11]) was −45.6%. For the same molecule, the “ALT/AST ratio T26” value (db/db mice [1]; [12]) was 0.99, the “ALT/AST ratio % effect T26-T0” value (db/db mice [1]; [13]) was −17.6% and the Kd (p75NTR) was 2 nM.
